Patent publication US20080227711A1 (LABORATOIRES SERONO, published 2008)

How the values were obtained:
[1] = target: T1, recombinant Evasin-3-6His purified from HEK293 cells (Rhipicephalus sanguineus, UniProt P0C8E8 21-86, glycosylation on the S and T residues of the N-terminal sequence … (80% of the mature protein); heterogeneous post-translational modification, smear of 20-30 Kd); assay: SPR (Biacore 3000), Evasin-3-6His immobilized on CM4 chip, chemokine injected
T1 construct: also called Evasin-3-HIS; mature Evasin-3-HIS
T1 sequence: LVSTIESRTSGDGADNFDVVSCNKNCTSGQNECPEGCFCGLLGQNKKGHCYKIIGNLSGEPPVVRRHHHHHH

[2] = target: T1, recombinant Evasin-3-6His purified from …; assay: BS3 cross-linking of 125I-labelled protein to Evasin-3-6His, SDS-PAGE autoradiography (FIG. 7)
[3] = target: T1, recombinant Evasin-3-6His purified from …; assay: competition for BS3 cross-linking of 125I-CXCL8/IL-8 to recombinant Evasin-3 in HEK293 supernatant, SDS-PAGE autoradiography

B1: CCL18/PARC (ligand)
chain: AQVGTNKELCCLVYTSWQIPQKFIVDYSETSPQCPKPGVILLTKRGRQICADPNKKWVQKYISDLKLNA
Q: Does B1 bind [1]?
A: no binding (tested: 0.5 µg/ml chemokine)

B2: TARC/CCL17 (ligand)
chain: ARGTNVGRECCLEYFKGAIPLRKLKTWYQTSEDCSRDAIVFVTVQGRAICSDPNNKRVKNAVKYLQSLERS
notes: also called 125I-CCL17/TARC
Q: Does B2 bind [2]?
A: no binding (tested: 0.23 nM 125I-labelled protein)

B3: CCL3/MIP-1-alpha (ligand)
chain: SLAADTPTACCFSYTSRQIPQNFIADYFETSSQCSKPGVIFLTKRSRQVCADPSEEWVQKYVSDLELSA
notes: also called MIP-1α
Q: Does B3 bind [3]?
A: no binding (tested: 1 µg unlabelled (500 fold excess))

B4: CCL4/MIP-1-beta (ligand)
chain: APMGSDPPTACCFSYTARKLPRNFVVDYYETSSLCSQPAVVFQTKRSKQVCADPSESWVQEYVYDLELN
notes: also called MIP-1β
Q: Does B4 bind [1]?
A: no binding (tested: 0.5 µg/ml chemokine)

B5: CCL5/RANTES (ligand)
chain: SPYSSDTTPCCFAYIARPLPRAHIKEYFYTSGKCSNPAVVFVTRKNRQVCANPEKKWVREYINSLEMS
notes: also called 125I-CCL5/RANTES
Q: Does B5 bind [2]?
A: no binding (tested: 0.23 nM 125I-labelled protein)
